Experimental data from PMC2627783 (Biochemistry, 2008).

Target: T1, HscA (UniProt P0A6Z1 1-616)
T1 sequence (looked up): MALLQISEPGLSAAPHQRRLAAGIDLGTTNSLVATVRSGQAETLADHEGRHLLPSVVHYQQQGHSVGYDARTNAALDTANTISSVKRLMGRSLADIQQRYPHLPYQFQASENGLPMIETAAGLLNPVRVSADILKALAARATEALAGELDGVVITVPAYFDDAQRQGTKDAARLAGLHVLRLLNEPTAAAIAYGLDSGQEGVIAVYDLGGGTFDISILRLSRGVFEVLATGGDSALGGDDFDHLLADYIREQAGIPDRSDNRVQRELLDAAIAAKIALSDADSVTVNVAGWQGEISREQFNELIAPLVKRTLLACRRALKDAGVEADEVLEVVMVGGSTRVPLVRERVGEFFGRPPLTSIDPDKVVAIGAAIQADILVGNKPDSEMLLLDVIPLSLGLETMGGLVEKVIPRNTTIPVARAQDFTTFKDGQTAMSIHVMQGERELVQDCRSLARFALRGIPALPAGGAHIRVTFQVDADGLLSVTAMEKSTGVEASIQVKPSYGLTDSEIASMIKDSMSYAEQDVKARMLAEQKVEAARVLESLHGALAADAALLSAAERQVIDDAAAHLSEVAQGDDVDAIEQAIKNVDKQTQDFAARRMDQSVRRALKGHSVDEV
Assay: cell-based or functional assay

B1: HscB (wild type) (natural protein, E. coli, UniProt P0A6L9 1-171, looked up)
chain: MDYFTLFGLPARYQLDTQALSLRFQDLQRQYHPDKFASGSQAEQLAAVQQSATINQAWQTLRHPLMRAEYLLSLHGFDLASEQHTVRDTAFLMEQLELREELDEIEQAKDEARLESFIKRVKKMFDTRHQLMVEQLDNETWDAAADTVRKLRFLDKLRSSAEQLEEKLLDF
  HscA ATPase activity, 23 °C, in the absence of IscU: maximal stimulation: 4.4 fold
